PMC9141661

Tests used:
[1] = biological target: Angiotensin-converting enzyme 2 (ACE2) ectodomain, Fc-tagged (human) (UniProt Q9BYF1); assay: latex nanoparticle-enhanced turbidimetry
[2] = biological target: Angiotensin-converting enzyme 2 (ACE2) ectodomain, Fc-tagged (human) (UniProt Q9BYF1); assay: BLI

Chain of Angiotensin-converting enzyme 2 (ACE2) ectodomain, Fc-tagged (human) (Q9BYF1 18-740): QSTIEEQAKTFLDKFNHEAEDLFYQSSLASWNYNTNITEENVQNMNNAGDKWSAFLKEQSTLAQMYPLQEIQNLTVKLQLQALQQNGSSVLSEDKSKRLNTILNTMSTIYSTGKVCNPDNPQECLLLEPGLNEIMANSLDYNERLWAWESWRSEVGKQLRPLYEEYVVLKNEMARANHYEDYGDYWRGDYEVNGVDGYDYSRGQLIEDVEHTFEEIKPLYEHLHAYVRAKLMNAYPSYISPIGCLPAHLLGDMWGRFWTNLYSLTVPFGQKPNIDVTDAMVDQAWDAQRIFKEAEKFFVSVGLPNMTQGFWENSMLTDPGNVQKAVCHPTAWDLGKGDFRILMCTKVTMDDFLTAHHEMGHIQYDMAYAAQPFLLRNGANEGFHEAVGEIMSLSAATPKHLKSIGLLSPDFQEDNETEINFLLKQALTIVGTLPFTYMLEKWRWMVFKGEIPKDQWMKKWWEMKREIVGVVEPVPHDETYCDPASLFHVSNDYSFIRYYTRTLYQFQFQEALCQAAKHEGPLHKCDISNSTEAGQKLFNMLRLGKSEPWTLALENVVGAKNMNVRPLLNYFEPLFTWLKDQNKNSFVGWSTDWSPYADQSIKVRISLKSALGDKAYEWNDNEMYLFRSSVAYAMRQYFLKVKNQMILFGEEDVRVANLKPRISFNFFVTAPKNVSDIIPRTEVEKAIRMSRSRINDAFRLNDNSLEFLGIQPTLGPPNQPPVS

Q: Which results are given for “Human milk lactoferrin (natural protein)”?
A: apparent Kobs (inhibition of RBD-ACE2 complex formation, initial rates) [1]: 6.3 µM; Kd [2]: 27.6 µM; koff [2]: 0.461 s⁻¹; kon [2]: 16700 M⁻¹ s⁻¹
